Source: paper doi:10.1101/2023.04.21.537812 (bioRxiv, 2023)

Biological target: the molecule itself
Assay: SEC

B1: uncleaved Ycf1p-3xFLAG (natural protein, S. cerevisiae, UniProt P39109 1-1515, looked up)
chain: MAGNLVSWACKLCRSPEGFGPISFYGDFTQCFIDGVILNLSAIFMITFGIRDLVNLCKKKHSGIKYRRNWIIVSRMALVLLEIAFVSLASLNISKEEAENFTIVSQYASTMLSLFVALALHWIEYDRSVVANTVLLFYWLFETFGNFAKLINILIRHTYEGIWYSGQTGFILTLFQVITCASILLLEALPKKPLMPHQHIHQTLTRRKPNPYDSANIFSRITFSWMSGLMKTGYEKYLVEADLYKLPRNFSSEELSQKLEKNWENELKQKSNPSLSWAICRTFGSKMLLAAFFKAIHDVLAFTQPQLLRILIKFVTDYNSERQDDHSSLQGFENNHPQKLPIVRGFLIAFAMFLVGFTQTSVLHQYFLNVFNTGMYIKSALTALIYQKSLVLSNEASGLSSTGDIVNLMSVDVQKLQDLTQWLNLIWSGPFQIIICLYSLYKLLGNSMWVGVIILVIMMPLNSFLMRIQKKLQKSQMKYKDERTRVISEILNNIKSLKLYAWEKPYREKLEEVRNNKELKNLTKLGCYMAVTSFQFNIVPFLVSCCTFAVFVYTEDRALTTDLVFPALTLFNLLSFPLMIIPMVLNSFIEASVSIGRLFTFFTNEELQPDSVQRLPKVKNIGDVAINIGDDATFLWQRKPEYKVALKNINFQAKKGNLTCIVGKVGSGKTALLSCMLGDLFRVKGFATVHGSVAYVSQVPWIMNGTVKENILFGHRYDAEFYEKTIKACALTIDLAILMDGDKTLVGEKGISLSGGQKARLSLARAVYARADTYLLDDPLAAVDEHVARHLIEHVLGPNGLLHTKTKVLATNKVSALSIADSIALLDNGEITQQGTYDEITKDADSPLWKLLNNYGKKNNGKSNEFGDSSESSVRESSIPVEGELEQLQKLNDLDFGNSDAISLRRASDATLGSIDFGDDENIAKREHREQGKVKWNIYLEYAKACNPKSVCVFILFIVISMFLSVMGNVWLKHWSEVNSRYGSNPNAARYLAIYFALGIGSALATLIQTIVLWVFCTIHASKYLHNLMTNSVLRAPMTFFETTPIGRILNRFSNDIYKVDALLGRTFSQFFVNAVKVTFTITVICATTWQFIFIIIPLSVFYIYYQQYYLRTSRELRRLDSITRSPIYSHFQETLGGLATVRGYSQQKRFSHINQCRIDNNMSAFYPSINANRWLAYRLELIGSIIILGAATLSVFRLKQGTLTAGMVGLSLSYALQITQTLNWIVRMTVEVETNIVSVERIKEYADLKSEAPLIVEGHRPPKEWPSQGDIKFNNYSTRYRPELDLVLKHINIHIKPNEKVGIVGRTGAGKSSLTLALFRMIEASEGNIVIDNIAINEIGLYDLRHKLSIIPQDSQVFEGTVRENIDPINQYTDEAIWRALELSHLKEHVLSMSNDGLDAQLTEGGGNLSVGQRQLLCLARAMLVPSKILVLDEATAAVDVETDKVVQETIRTAFKDRTILTIAHRLNTIMDSDRIIVLDNGKVAEFDSPGQLLSDNKSLFYSLCMEAGLVNEN
  binding result: binds
